# Measurements published in patent publication US20120220540A1, “SYNBODIES TO AKT1” (ARIZONA BOARD OF REGENTS FOR AND ON BEHALF OF ARIZONA STATE …, priority 2009, published 2012).
# Square brackets hold non-standard residues; d marks the D form. Ends that are not written are not given here. * marks the point of attachment. Biotin = O=C1N[C@H]2[C@H](CS[C@H]2CCCCC(=O)*)N1; Oct = octanoic acid spacer; oct = octanoic acid spacer; StBu = CC(C)(C)S*
# B1: Akt26(Oct)-23KC (designed binder)
# chain 1: AHKVVPQRQIRHAYNRYGSG[Oct]KC(StBu)
# chain 2: FRGWAHIFFGPHVIYRGGSG
# modifications: numbers in words are those of the source; also: bond at chain A 21 to a chain's C-terminus
# notes: Branched molecule; They shift if the listing holds a placeholder for the spacer
# B2: Akt26-23(hex)KC (designed binder)
# chain 1: AHKVVPQRQIRHAYNRYGSGKC(StBu)
# chain 2: FRGWAHIFFGPHVIYRGGSG
# modifications: not fully specified (C-terminus); also: linker at chain A 21 to a chain's C-terminus via hex
# notes: Branched molecule
# B3: Akt26-23KKbiotin (designed binder)
# chain 1: AHKVVPQRQIRHAYNRYGSGKK(Biotin)
# chain 2: FRGWAHIFFGPHVIYRGGSG
# modifications: also: bond at chain A 21 to a chain's C-terminus
# notes: I split it into two chains; The name runs over rows r11 and r12; also called synbody 5
# B4: m2-Akt26-23 KC (designed binder)
# chain 1: AHKVVYQRQIRFAYNRYGSGKC
# chain 2: FRGWAHIFFGPHVIYRGGSG
# modifications: also: bond at chain A 21 to a chain's C-terminus
# notes: Mutant peptide on a lysine scaffold; Branched molecule, which I split into two chains
# B5: m4-Akt26-23 KC (designed binder)
# chain 1: AHKVVPQRWIRHAYNRYGSGKC
# chain 2: FRGWAHIFFGPHVIYRGGSG
# modifications: also: bond at chain A 21 to a chain's C-terminus
# notes: as for B4
# B6: m1-Akt26-23 KC (designed binder)
# chain 1: AHKVVPQRQMRHAYSRYGSGKC
# chain 2: FRGWAHIFFGPHVIYRGGSG
# modifications: also: bond at chain A 21 to a chain's C-terminus
# notes: Mutant peptide on a lysine scaffold
# B7: lead synbody (Akt26 and Akt23 on a lysine linker, second lysine with biotin) (designed binder)
# chain 1: AHKVVPQRQIRHAYNRYGSGKK
# chain 2: FRGWAHIFFGPHVIYRGGSG
# modifications: not fully specified (some residues); also: bond at chain A 21 to a chain's C-terminus
# notes: also called the synbody; first generation synbody
# B8: m6-Akt26-23 KC (designed binder)
# chain 1: AWKVVPQRWIRYAYNRYGSGKC
# chain 2: FRGWAHIFFGPHVIYRGGSG
# modifications: also: bond at chain A 21 to a chain's C-terminus
# notes: as for B4
# B9: m5-Akt26-23 KC (designed binder)
# chain 1: AWKVVPQRWIRHAYNRYGSGKC
# chain 2: FRGWAHIFFGPHVIYRGGSG
# modifications: also: bond at chain A 21 to a chain's C-terminus
# notes: as for B4
# Key:
# AKT1 [1] = target: AKT1 (Homo sapiens, UniProt P31749); experiment: KD of synbody variants (Tables 2 and 4); format: binding; parameters: key to KD (nM): n.b. = no binding
# Sequence of AKT1 (Homo sapiens, UniProt P31749) (P31749 whole entry): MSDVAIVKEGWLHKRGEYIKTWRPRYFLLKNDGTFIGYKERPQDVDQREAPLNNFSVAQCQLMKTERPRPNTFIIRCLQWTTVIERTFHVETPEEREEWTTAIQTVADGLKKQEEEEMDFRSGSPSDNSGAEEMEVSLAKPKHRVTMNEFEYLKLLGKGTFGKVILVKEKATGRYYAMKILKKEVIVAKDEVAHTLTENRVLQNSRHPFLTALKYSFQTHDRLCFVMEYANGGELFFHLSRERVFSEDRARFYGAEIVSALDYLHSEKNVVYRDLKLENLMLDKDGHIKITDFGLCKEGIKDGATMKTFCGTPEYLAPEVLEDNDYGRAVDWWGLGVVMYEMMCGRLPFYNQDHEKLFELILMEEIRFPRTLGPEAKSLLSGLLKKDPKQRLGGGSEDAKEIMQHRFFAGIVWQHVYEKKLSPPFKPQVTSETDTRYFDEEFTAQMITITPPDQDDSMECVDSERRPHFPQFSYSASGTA
# Protocol: Selection of screening of amino acid variants has been described above. Variants including modifications of conjugation chemistry, linker, spacers or adjunct moieties can be screened for retention of binding to AKT1. In some methods, either the AKT1 or the synbody is immobilized. Optionally binding of a variant is tested in competition with the lead AKT1 synbody discussed above. In one format, AKT1 is immobilized to a support and synbody variants are tested for binding by surface plasmon resonance.
# The following synbodies have the same peptides as the lead synbody and are synthesized off of a lysine core but include the addition of different functional groups synthesized between the C-terminus of the peptide and the amine groups of the lysine scaffold (Table 2). Synbodies were conjugated with either a C-terminal cysteine protected against disulfide formation using a sulfo-tert-butyl group, or with different biotin-conjugated lysines where the spacer between the lysine and the backbone varied. For example, in synbody 5 the biotin was attached to the amino group of the side chain, synbody 6 used a caproic acid spacer, while synbody 7 used an eleven-unit polyethylene glycol spacer.
# The following mutant forms of the lead peptide have been made in which either one or more amino acids are substituted or the orientation of the peptides on the linker is reversed (Table 4).
# AKT3 [2] = target: AKT3 (Homo sapiens, UniProt Q9Y243); experiment: Immunoprecipitation of purified AKT3 from cell lysate with synbody (Western blot); format: binding; conditions: immunoprecipitate of purified 250 ng AKT3 from 500 mg of cell lysate
# Sequence of AKT3 (Homo sapiens, UniProt Q9Y243) (Q9Y243 whole entry): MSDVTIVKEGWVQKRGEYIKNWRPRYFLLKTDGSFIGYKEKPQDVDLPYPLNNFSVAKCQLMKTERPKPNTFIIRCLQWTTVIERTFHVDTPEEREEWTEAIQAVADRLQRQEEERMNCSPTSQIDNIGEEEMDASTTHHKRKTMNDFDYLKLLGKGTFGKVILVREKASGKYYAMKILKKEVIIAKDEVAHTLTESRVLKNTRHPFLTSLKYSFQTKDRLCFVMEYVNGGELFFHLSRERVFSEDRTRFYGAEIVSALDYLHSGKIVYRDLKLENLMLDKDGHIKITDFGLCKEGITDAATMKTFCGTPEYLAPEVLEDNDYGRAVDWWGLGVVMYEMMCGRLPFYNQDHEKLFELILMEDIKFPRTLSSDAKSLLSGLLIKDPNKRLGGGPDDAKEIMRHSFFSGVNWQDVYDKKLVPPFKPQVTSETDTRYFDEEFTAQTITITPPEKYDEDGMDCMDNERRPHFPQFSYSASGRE
# Protocol: (§1) The synbody was tested for binding to AKT1 and in some experiments, AKT2 and AKT3.
# AKT2 [3] = target: AKT2 (Homo sapiens, UniProt P31751); experiment: Immunoprecipitation of purified AKT2 from cell lysate with synbody (Western blot); format: binding; conditions: immunoprecipitate of purified 250 ng AKT2 from 500 mg of cell lysate
# Sequence of AKT2 (Homo sapiens, UniProt P31751) (P31751 whole entry): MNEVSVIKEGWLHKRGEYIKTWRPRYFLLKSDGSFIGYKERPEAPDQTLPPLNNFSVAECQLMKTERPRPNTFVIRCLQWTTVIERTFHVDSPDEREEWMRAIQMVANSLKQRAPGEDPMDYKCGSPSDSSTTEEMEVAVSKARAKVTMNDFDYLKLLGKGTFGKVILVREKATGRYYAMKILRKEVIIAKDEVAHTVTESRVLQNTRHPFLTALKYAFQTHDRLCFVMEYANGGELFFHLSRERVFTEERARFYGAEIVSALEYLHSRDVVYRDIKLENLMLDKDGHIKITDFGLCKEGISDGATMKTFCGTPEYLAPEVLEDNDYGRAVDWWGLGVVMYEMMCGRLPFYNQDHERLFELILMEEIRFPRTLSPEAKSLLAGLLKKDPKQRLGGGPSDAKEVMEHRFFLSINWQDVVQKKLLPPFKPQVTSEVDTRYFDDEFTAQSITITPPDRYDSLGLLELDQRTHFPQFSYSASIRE
# Protocol: as §1
# AKT1 [4] = target: T1, AKT1 (human, UniProt P31749 1-480); experiment: method not stated (Table 2)
# T1 construct: also called human AKT1; AKT1_HUMAN
# T1 sequence (P31749 whole entry): as the sequence (P31749 whole entry) above
# AKT1 [5] = target: T1, AKT1; experiment: method not stated (Table 4)
# AKT2 [6] = target: AKT2 (human, UniProt P31751 1-481); experiment: immunoprecipitation of 250 ng purified AKT2 from cell lysate with the synbody, Western blot
# Sequence of AKT2 (human, UniProt P31751 1-481) (P31751 whole entry): as the sequence (P31751 whole entry) above
# Protocol: as §1
# AKT3 [7] = target: AKT3 (human, UniProt Q9Y243 1-479, limits assumed); experiment: immunoprecipitation of 250 ng purified AKT3 from cell lysate with the synbody, Western blot
# Sequence of AKT3 (human, UniProt Q9Y243 1-479, limits assumed) (Q9Y243 whole entry): as the sequence (Q9Y243 whole entry) above
# Protocol: as §1
# AKT1 [8] = target: T1, AKT1; experiment: SPR, synbody at 12.5 and 6.25 nM injected over immobilized AKT1, 1:1 kinetic fit
# Protocol: as §1
# AKT1 [9] = target: T1, AKT1; experiment: SPR, 12.5 and 6.25 nM synbody injected over AKT1 surface, 1:1 kinetic fit; SPR, synbody injected over AKT1 surface, 1:1 kinetic fit
# Protocol: as §1
# AKT1 [10] = target: T1, AKT1; experiment: pull-down of S35-labeled AKT1 with synbody immobilized via biotin on magnetic beads, 1:1 fit; pull-down of S35-labeled AKT1, synbody on magnetic bead via biotin
# Protocol: as §1
# [11] = Table 2, synbodies constructed from a lysine scaffold
molecule,measurement,setting,value
AWKVVPQRQIRHAYNRYGSGKCFRGWAHIFFGPHVIYRGGSG [m3-Akt26-23 KC],KD (nM),"AKT1 [1]; Table 4, synbodies constructed from mutant peptides on lysine scaffold",n.b.
AHKVVPQRQIRHAYNRYGSG(oct)KCFRGWAHIFFGPHVIYRGGSG(oct) (AHKVVPQRQIRHAYNRYGSG[oct]KCFRGWAHIFFGPHVIYRGGSG-oct; not fully specified; printed as AHKVVPQRQIRHAYNRYGSG(oct)KCFRGWAHIFFGPHVIYRGGSG(oct); numbers in words are those of the source; also: branched on Lys21 side chain (linear writing)) [Akt26-(Oct)-23(Oct)KC],KD (nM),AKT1 [1]; [11],n.b.
CC[C@H](C)[C@H](NC(=O)[C@H](Cc1c[nH]cn1)NC(=O)[C@H](C)NC(=O)[C@H](Cc1c[nH]c2ccccc12)NC(=O)CNC(=O)[C@H](CCCNC(=N)N)NC(=O)[C@@H](N)Cc1ccccc1)C(=O)N[C@@H](Cc1ccccc1)C(=O)N[C@@H](Cc1ccccc1)C(=O)NCC(=O)N1CCC[C@H]1C(=O)N[C@@H](Cc1c[nH]cn1)C(=O)N[C@H](C(=O)N[C@H](C(=O)N[C@@H](Cc1ccc(O)cc1)C(=O)N[C@@H](CCCNC(=N)N)C(=O)NCC(=O)NCC(=O)N[C@@H](CO)C(=O)NCC(=O)NCCCC[C@H](NC(=O)CNC(=O)[C@H](CO)NC(=O)CNC(=O)[C@H](Cc1ccc(O)cc1)NC(=O)[C@H](CCCNC(=N)N)NC(=O)[C@H](CC(N)=O)NC(=O)[C@H](Cc1ccc(O)cc1)NC(=O)[C@H](C)NC(=O)[C@H](Cc1c[nH]cn1)NC(=O)[C@H](CCCNC(=N)N)NC(=O)[C@@H](NC(=O)[C@H](CCC(N)=O)NC(=O)[C@H](CCCNC(=N)N)NC(=O)[C@H](CCC(N)=O)NC(=O)[C@@H]1CCCN1C(=O)[C@@H](NC(=O)[C@@H](NC(=O)[C@H](CCCCN)NC(=O)[C@H](Cc1c[nH]cn1)NC(=O)[C@H](C)N)C(C)C)C(C)C)[C@@H](C)CC)C(=O)N[C@@H](CSSC(C)(C)C)C(N)=O)[C@@H](C)CC)C(C)C [Akt26-23KC],Kd,AKT1 [1]; [11],4 nM
CC[C@H](C)[C@H](NC(=O)[C@H](Cc1c[nH]cn1)NC(=O)[C@H](C)NC(=O)[C@H](Cc1c[nH]c2ccccc12)NC(=O)CNC(=O)[C@H](CCCNC(=N)N)NC(=O)[C@@H](N)Cc1ccccc1)C(=O)N[C@@H](Cc1ccccc1)C(=O)N[C@@H](Cc1ccccc1)C(=O)NCC(=O)N1CCC[C@H]1C(=O)N[C@@H](Cc1c[nH]cn1)C(=O)N[C@H](C(=O)N[C@H](C(=O)N[C@@H](Cc1ccc(O)cc1)C(=O)N[C@@H](CCCNC(=N)N)C(=O)NCC(=O)NCC(=O)N[C@@H](CO)C(=O)NCC(=O)NCCCC[C@H](NC(=O)CNC(=O)[C@H](CO)NC(=O)CNC(=O)[C@H](Cc1ccc(O)cc1)NC(=O)[C@H](CCCNC(=N)N)NC(=O)[C@H](CC(N)=O)NC(=O)[C@H](Cc1ccc(O)cc1)NC(=O)[C@H](C)NC(=O)[C@H](Cc1c[nH]cn1)NC(=O)[C@H](CCCNC(=N)N)NC(=O)[C@@H](NC(=O)[C@H](CCC(N)=O)NC(=O)[C@H](CCCNC(=N)N)NC(=O)[C@H](CCC(N)=O)NC(=O)[C@@H]1CCCN1C(=O)[C@@H](NC(=O)[C@@H](NC(=O)[C@H](CCCCN)NC(=O)[C@H](Cc1c[nH]cn1)NC(=O)[C@H](C)N)C(C)C)C(C)C)[C@@H](C)CC)C(=O)N[C@@H](CCCCNC(=O)CCCC[C@@H]1SC[C@@H]2NC(=O)N[C@@H]21)C(N)=O)[C@@H](C)CC)C(C)C [lead synbody],cross-reactivity with AKT3,AKT3 [2],little cross-reactivity
same,cross-reactivity with AKT2,AKT2 [3],little cross-reactivity
AHKVVPQRQIRHAYNRYGSGKCFRGWAHIFFGPHVIYRGGSG(oct) (AHKVVPQRQIRHAYNRYGSGKCFRGWAHIFFGPHVIYRGGSG-oct; not fully specified; printed as AHKVVPQRQIRHAYNRYGSGKCFRGWAHIFFGPHVIYRGGSG(oct); also: branched on Lys21 side chain (linear writing)) [Akt26-23(Oct)KC],KD (nM),AKT1 [1]; [11],n.b.
B1,Kd,AKT1 [4],6 nM
B2,Kd,AKT1 [4],3 nM
B3,Kd,AKT1 [4],4 nM
B4,Kd,AKT1 [5],5 nM
B5,Kd,AKT1 [5],5 nM
B6,Kd,AKT1 [5],15 nM
B7,binding result,AKT2 [6],binds
same,binding result,AKT3 [7],binds
same,koff,AKT1 [8],0.000295 s⁻¹
same,Kd,AKT1 [9],1.49 nM
same,Kd,AKT1 [10],4.9 nM
B8,Kd,AKT1 [5],~10 nM
B9,Kd,AKT1 [5],8 nM
